2 substances from patent US20260226173A1, “COMPOSITIONS INCLUDING ANTI-WT-1 ANTIBODIES & ANTIGEN BINDING FRAGMENTS AND USES THEREOF” (Memorial Sloan-Kettering Cancer Center, priority 2023, published 2026) can be followed below.

Assay [1] deals with HLA-A2 with endogenous peptides on HLA-A2-positive cells not pulsed with peptide (SKLY-16, normal cells of HLA-A2+ donors) (human). In words: flow cytometry, PBMCs of an HLA-A2 positive healthy donor, CD33 against isotype control. On the technique in general: A flow cytometer gives signals particle by particle.
The target is the same in assay [2]. Briefly: flow cytometry, whole blood of an HLA-A2 positive healthy donor, neutrophil gate, CD15 against isotype control.
Assay [3] has the same target. In words: flow cytometry, PBMCs of an HLA-A2 positive healthy donor, CD19 against isotype control.
In assay [4] the target is WT1 RMF (…)/HLA-A2 complex on cells (human). Briefly: flow cytometry, primary AML cells (FIG. 18 shows sample 92C per paragraph 796) stained with PE-conjugated isotype control mouse IgG at 3 µg/ml; unstained 124.

In assay [1], Isotype (antibody) displayed a % of PBMCs CD33+ and isotype+ (upper right quadrant) of 0.03%; a % of PBMCs CD33- and isotype+ (lower right quadrant) of 1.07%. In addition, in assay [2], the % of gated neutrophils CD15+ and isotype+ (upper right quadrant) is 0.04%; the % of gated neutrophils CD15- and isotype+ (lower right quadrant) was 0.02%. In assay [3], this substance came in with a % of PBMCs CD19+ and isotype+ (upper right quadrant) of 0.91%; a % of PBMCs CD19- and isotype+ (lower right quadrant) of 0.05%.

On to Iso. (antibody), for which the MFI in assay [4] turned out to be 372.
